Numbering of substitutions follows the chain as printed.

This assay deals with human IL-17RA (human) (UniProt Q96F46). In words: cell-based or functional assay.

B1: 3.1404 (antibody, from a related filing, V domains shown)
VH: QVQLVQSGAEVKKPGASVKVSCKASGYTFTRYGISWVRQAPGQGLEWMGWISTYSGNTNYAQKLQGRVTMTTDTSTSTAYMELRSLRSDDTAVYYCARRQLYFDYWGQGTLVTVSS
VL: EIVMTQSPATLSVSPGERATLSCRASQSVSSNLAWFQQKPGQAPRPLIYDASTRATGVPARFSGSGSGTDFTLTISSLQSEDFAVYYCQQYDNWPLTFGGGTKVEIK
As to B1, the % Inhib. of IL-5 production, TSLP treated human PBMC + IL-2 + IL-25, Expt. 1 amounted to 68%; the % Inhib. of IL-5 production, TSLP treated human PBMC + IL-2 + IL-25, Expt. 2 stood at 76%; the % Inhibition of IL-5 production, TSLP treated human PBMC + IL-2 + IL-25; inhibitor 0.1 micrograms/mL came to 12%; the % Inhibition of IL-5 production, TSLP treated human PBMC + IL-2 + IL-25; inhibitor 1.0 micrograms/mL was found to be 54%.

B2: 3.381 (antibody, from a related filing, V domains shown)
VH: B1 VH with T53A
VL: B1 VL with A19V, T56A, V58I
On to B2, for which the % Inhib. of IL-5 production, TSLP treated human PBMC + IL-2 + IL-25, Expt. 1 is 90%; the % Inhib. of IL-5 production, TSLP treated human PBMC + IL-2 + IL-25, Expt. 2 amounted to 75%; the % Inhibition of IL-5 production, TSLP treated human PBMC + IL-2 + IL-25; inhibitor 10 micrograms/mL was determined as 100%.

(Values after US20160208004A1.)
